Source: patent US20030100021A1

How the values were obtained:
Experiment in all cases: cell-based or functional assay
[1] = molecular target: LepR-IRS1 bait receptor (pMET7 LepR-IRS1) (mouse; human) (UniProt P48356)
[2] = molecular target: βc/LepR-F3-Smad3 + GM-CSFRα/LepR-F3-ALK4CA heteromeric bait receptor (Example 8, transfection b) (mouse; human) (UniProt P32927)
[3] = molecular target: βc/LepR-F3-ALK4CA + GM-CSFRα/LepR-F3-Smad3 heteromeric bait receptor (Example 8, transfection a) (mouse; human) (UniProt P32927)
[4] = molecular target: LepR Y985/1077F mutant (pMET7 LepRY985/1077F) (mouse) (UniProt P48356)
[5] = molecular target: EpoR/LepR-F3-p53 chimeric bait receptor (pSEL1-p53) (human; mouse) (UniProt P19235)
[6] = molecular target: EpoR/LepR-F3-EpoR chimeric bait receptor (pSEL1-EpoR) (human; mouse) (UniProt P19235)
Chain of EpoR/LepR-F3-EpoR chimeric bait receptor (pSEL1-EpoR) (human; mouse) (P19235 other isoform, or with tags, fused parts or gaps mutant limits assumed, form in doubt): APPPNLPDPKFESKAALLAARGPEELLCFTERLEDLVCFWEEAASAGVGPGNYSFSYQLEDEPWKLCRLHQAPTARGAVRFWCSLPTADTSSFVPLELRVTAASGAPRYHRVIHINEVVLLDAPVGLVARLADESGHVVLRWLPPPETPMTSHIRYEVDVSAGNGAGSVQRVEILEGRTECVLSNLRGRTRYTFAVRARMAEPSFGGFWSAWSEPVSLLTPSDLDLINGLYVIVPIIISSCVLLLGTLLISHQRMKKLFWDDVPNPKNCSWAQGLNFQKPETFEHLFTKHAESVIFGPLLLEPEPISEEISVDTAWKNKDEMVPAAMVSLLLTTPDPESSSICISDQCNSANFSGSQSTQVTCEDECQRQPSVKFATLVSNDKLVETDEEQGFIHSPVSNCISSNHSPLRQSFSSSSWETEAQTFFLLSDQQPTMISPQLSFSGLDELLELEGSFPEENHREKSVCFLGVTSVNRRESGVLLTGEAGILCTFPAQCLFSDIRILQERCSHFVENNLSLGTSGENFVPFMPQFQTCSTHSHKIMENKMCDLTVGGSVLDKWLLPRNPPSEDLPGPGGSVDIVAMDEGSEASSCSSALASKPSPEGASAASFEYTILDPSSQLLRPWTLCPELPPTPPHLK

Chain of flag-gp130-SVT prey (pMG1-SVT; pMET7-flag-gp130-SVT) (P40189 761-918, tags or fused parts left off): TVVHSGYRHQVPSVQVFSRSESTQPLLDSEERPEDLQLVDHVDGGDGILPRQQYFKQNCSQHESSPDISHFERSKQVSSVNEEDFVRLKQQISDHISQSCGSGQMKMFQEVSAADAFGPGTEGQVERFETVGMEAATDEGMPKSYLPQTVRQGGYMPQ
Chain of EpoR/LepR-F3-p53 chimeric bait receptor (pSEL1-p53) (human; mouse) (P19235 other isoform, or with tags, fused parts or gaps mutant limits assumed, form in doubt): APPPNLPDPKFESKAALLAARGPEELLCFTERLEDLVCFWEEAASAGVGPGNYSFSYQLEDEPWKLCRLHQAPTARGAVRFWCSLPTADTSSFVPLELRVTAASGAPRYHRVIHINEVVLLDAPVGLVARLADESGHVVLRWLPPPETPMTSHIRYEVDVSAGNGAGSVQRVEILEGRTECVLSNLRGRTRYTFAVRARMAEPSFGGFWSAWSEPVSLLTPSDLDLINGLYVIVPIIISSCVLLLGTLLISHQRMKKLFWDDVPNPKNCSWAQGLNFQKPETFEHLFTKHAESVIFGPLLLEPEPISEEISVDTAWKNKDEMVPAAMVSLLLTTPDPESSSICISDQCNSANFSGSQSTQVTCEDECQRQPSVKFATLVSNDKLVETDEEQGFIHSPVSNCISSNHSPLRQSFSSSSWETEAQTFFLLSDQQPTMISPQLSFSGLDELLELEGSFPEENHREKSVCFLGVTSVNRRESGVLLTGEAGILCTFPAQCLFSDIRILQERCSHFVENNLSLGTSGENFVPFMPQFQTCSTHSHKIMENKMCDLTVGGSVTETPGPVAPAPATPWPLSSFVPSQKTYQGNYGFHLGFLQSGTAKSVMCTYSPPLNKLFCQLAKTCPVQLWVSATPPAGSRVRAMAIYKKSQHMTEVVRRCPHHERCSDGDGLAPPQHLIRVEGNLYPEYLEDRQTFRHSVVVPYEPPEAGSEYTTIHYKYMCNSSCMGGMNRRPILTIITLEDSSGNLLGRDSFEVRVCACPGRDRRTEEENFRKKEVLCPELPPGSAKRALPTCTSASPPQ
Chain of LepR Y985/1077F mutant (pMET7 LepRY985/1077F) (mouse) (P48356 other isoform, or with tags, fused parts or gaps mutant): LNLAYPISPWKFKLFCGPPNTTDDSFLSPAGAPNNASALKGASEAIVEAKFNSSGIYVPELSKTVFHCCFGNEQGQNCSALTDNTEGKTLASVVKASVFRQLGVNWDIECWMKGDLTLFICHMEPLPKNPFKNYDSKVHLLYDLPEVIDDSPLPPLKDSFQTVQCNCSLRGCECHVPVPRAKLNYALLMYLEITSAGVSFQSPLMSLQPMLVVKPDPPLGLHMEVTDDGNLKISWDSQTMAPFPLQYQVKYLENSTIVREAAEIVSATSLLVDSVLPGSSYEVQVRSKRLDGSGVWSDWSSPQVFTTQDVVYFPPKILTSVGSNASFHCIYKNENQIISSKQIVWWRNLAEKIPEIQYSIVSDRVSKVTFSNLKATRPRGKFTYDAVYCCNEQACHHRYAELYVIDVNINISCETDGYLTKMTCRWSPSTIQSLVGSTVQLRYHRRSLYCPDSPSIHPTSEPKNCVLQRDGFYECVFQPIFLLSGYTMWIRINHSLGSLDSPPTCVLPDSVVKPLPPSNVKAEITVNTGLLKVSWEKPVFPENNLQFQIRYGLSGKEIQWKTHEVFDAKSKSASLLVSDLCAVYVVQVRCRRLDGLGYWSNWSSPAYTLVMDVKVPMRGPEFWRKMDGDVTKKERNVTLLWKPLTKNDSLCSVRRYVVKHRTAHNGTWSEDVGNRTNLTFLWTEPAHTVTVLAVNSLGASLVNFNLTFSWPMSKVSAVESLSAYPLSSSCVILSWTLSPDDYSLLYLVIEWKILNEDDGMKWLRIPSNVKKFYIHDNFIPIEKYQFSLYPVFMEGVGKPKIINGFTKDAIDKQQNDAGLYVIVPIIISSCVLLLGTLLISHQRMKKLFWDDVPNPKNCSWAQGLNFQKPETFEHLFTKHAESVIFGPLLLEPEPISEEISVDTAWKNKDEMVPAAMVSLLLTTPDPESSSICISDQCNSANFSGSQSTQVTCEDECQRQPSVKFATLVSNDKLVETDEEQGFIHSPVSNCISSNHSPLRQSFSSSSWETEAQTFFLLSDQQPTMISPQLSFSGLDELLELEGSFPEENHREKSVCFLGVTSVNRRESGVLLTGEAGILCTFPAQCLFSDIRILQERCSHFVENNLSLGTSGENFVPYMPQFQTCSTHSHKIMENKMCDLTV

## flag-gp130-GRB2S prey (pMG1-GRB2S) (from UniProt P40189 761-918; P62993 60-158)
[1]
  luciferase activity (rPAP1 promoter), fold induction, leptin co-stimulated with forskolin: 2.5 fold

## flag-gp130-VavS prey (pMG1-VavS) (from UniProt P40189 761-918; P15498 259-789)
[1]
  luciferase activity (rPAP1 promoter), fold induction, leptin: 5.2 fold
  luciferase activity (rPAP1 promoter), fold induction, leptin co-stimulated with forskolin: 12 fold

## pMG2-Smad4 prey (flag-gp130 with 6 STAT recruitment sites fused to human Smad4) (from UniProt Q13485 4-552)
[2]
  luciferase activity (rPAP1 promoter), fold induction, GM-CSF: 9 fold
  luciferase activity (rPAP1 promoter), fold induction, GM-CSF co-stimulated with forskolin: 71 fold
[3]
  luciferase activity (rPAP1 promoter), fold induction, GM-CSF: 3 fold
  luciferase activity (rPAP1 promoter), fold induction, GM-CSF co-stimulated with forskolin: 37 fold

## recombinant human leptin (R&D systems) (from UniProt P41159 22-167) (ligand)
[4]
  luciferase activity (rPAP1-luci reporter), fold induction, leptin: 33.2 fold
  luciferase activity (rPAP1-luci reporter), fold induction, leptin co-stimulated with forskolin: 37.6 fold

## flag-gp130-SVT prey (pMG1-SVT; pMET7-flag-gp130-SVT) (from UniProt P40189 761-918; P03070 261-708)
[5]
  luciferase activity (rPAP1-luci reporter), fold induction, erythropoietin: 9.4 fold
  luciferase activity (rPAP1-luci reporter), fold induction, erythropoietin plus forskolin: 14.6 fold

## flag-gp130-CIS prey (pMG1-CIS) (from UniProt P40189 761-918; Q62225 2-257)
[6]
  luciferase activity (rPAP1-luci reporter), fold induction, erythropoietin: 6.2 fold
  luciferase activity (rPAP1-luci reporter), fold induction, erythropoietin plus forskolin: 10.5 fold
